Residue numbers refer to the chain shown, from its start.
T1: 可溶性CD20 (Genentech) (UniProt P11836)
T1 sequence (looked up): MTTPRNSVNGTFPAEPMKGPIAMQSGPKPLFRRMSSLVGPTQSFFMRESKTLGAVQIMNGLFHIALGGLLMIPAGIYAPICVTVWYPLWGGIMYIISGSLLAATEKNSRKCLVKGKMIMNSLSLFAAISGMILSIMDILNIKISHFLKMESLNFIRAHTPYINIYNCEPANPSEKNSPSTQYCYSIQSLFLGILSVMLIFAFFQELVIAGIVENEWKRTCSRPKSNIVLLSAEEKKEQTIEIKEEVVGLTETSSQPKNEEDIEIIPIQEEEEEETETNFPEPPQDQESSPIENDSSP

T2: CD20 on WIL2-S cells (human) (UniProt P11836)
T2 sequence (looked up): T1 sequence (looked up)

B1: hu2H7.v511 (antibody, human IgG1, kappa, V domains shown)
VH: EVQLVESGGGLVQPGGSLRLSCAASGYTFTSYNMHWVRQAPGKGLEWVGAIYPGNGATSYNQKFKGRFTISVDKSKNTLYLQMNSLRAEDTAVYYCARVVYYSYRYWYFDVWGQGTLVTVSS
VL: DIQMTQSPSSLSASVGDRVTITCRASSSVSYLHWYQQKPGKAPKPLIYAPSNLASGVPSRFSGSGSGTDFTLTISSLQPEDFATYYCQQWAFNPPTFGQGTKVEIKR
B2: 2H7.v4 (antibody, IgG1, V domains shown)
VH: B1 VH with G49A, A57D, K74N, Y104N, R105S
VL: B1 VL with L32M, P45L, A91S
B3: 人源化2H7型式2 (2H7.v2) (antibody, IgG1, V domains shown)
VH: B1 VH with G49A, A57D, V72R, K74N, Y104N, R105S
VL: B1 VL with L32M, P45L, A91S
B4: 2H7.v3 (antibody, IgG1, V domains shown)
VH: B1 VH with G49A, A57D, Y104N, R105S
VL: B1 VL with L32M, P45L, A91S

Key:
可溶性CD20 (Genentech) = molecular target: T1, 可溶性CD20 (Genentech); assay: ELISA, soluble CD20 coated on plate
[1] = molecular target: T2, CD20 on WIL2-S cells (human); assay: cell ELISA, WIL2-S; ratio vs chimeric 2H7.v6.8

| fold increase in binding (vs 2H7.v16 and 2H7.v588) (可溶性CD20 (Genentech)) [fold] | 相对结合 [1] | Binder |
| --- | --- | --- |
| 90 | – | B1 |
| – | 0.21 | B2 |
| – | 0.01 | B3 |
| – | 0.21 | B4 |

— patent publication CN101151278A
